The values that follow come from a protein production outcome set (Wang et al. 2014).

The data set in a line: label from the status in PepcDB records.
As to “MNISIFKEKSLKWQLLRRMFLLLICFLIILEIFQYFFLRHYICKDKEMLLESRINNVAHLMTTIDSEASLKKNSGYLIKKSLYFDTTSSVIDKNGNVLLFHIKDKHPTSPPIISASEYKAIMKREGNLEGYTITKNKCGEPQITIWRKIGNLNSPLGLIQLTTPYHSAAQFLYKQIYIYIVACVLILILSILIGGTLIKHTLKPLYRIAHTLNNLTVGDLNKRLSENNNQVEIDHLATAFNNMFSRIEISFNREKELKKKMQQFISDASHELRTPLTSIRGFVEVLLIGSYKDEKKLKLALNTILIESERLTELVNNLLTLTRLDRSTHTEMTKQNMSDIIEEIYPQLKILAKNRQVNLNLYDNNAYFLGNKNQIKQVIFNIVQNSINYTDKETGIITLSLSIEDTLFILKISDNGIGIASKDLPHIFDRFFRSETHRSRESGGYGLGLSIAKSIIQSHGGEISTKSIINQGTSFYIKLKRI”, the protein production result is given as “failed”. Take “MSPARARLTAPIVLLMSVATGLAVASNYYAQPLLHTIGAEFALTTATAGAIVTVAQLSYAVGLILLVPLGDLYERRTLIALMTALSAVGLLLSAFSPGIGWLMLGTAVTGLLSVVAQVLVPFAATLAEPHERGKVVGAVMSGLLLGILLARTIAGALADLGSWRTVYWVAAILMLLMSMALWRVLPRSVNPTRLSYPRLLASIVQLYAQEPLLRARSVLGALLFAAFSMLWTPLTFLLSGPNYGYSNTTIGLFGLAGAIGAYGANRFGRLNDRGQGNRSTRQGLLLLASWPLLAWGAHHVAPLLAGVLALDLAIQAVHVTNQSAIYRLRPEARSRLTAGYMTSYFLGGAAGSLLSAWIYAHAGWLGVTAAGALTSLAALLYGCLARSARIPETTPAPAIA”: the protein production result is on record as “failed”. For the sequence “MVEFLNKKKKSAQRPINLNGSFIFILILTFEFERRVKVDTADIFQRTMMLIGEDGLKKLSNVNIAVCGLGGVGSFAFEALVRCGIQNFVILDKDRVSVSNLNRQLIATVSNIGKSKVDIAYERALDINPFVNVVKVQKEINPENVEELLGNTKIDYIVDAIDDVSAKIALIKFAISRGIKIISSMGMGNRLNPSLLRISDIYSTKNCPLAKKIRSILRKEGIKKLKVVYSEEKPLKPDYKFLKEKTQKAHVPGSISFVPPVAGFLMAYEVVKDLLGW”, the protein production entry was “failed”.

As for “MANYPKELPAQTQSRQPGIESEMNPSPVYEYEDYKGADKLKGKVALITGGDSGIGRAVSVAYAKEGADIAIVYKDEHEDAEETKKRVEQEGVKCLLIAGDVGEEEFCNEAVEKTVKELGGLDILVNNAGEQHPKESIKDITSEQLHRTFKTNFYSQFYLTKKAIDYLKPGSAIINTTSINPYVGNPTLIDYTATKGAINAFTRTMAQALVKDGIRVNAVAPGPIWTPLIPATFPEETVAQFGQDTPMGRPGQPVEHVGCYVLLASD”, the protein production entry is given as “not failed”. For “MKSLTPHLLLCSFFTSIAPALGEGFRNKRVAFIPTAAAHEEYTAYVDSARSSWKELGSNITDVDIARMPLRTATEALEQAEIIYLSGGNSFYLLDCLRSTEIDQIIRGRLAEGAILVGESAGAIVCSPNIAYIQPMDRVPDNYSQADYTGLNLVDFFPVPHYLAPPFVKSSKEVVAQHASLPLELMNNAEAVIVEGPQRTKISSEHQ”, the protein production result is recorded as “failed”. With “MEMEMINIRVLRFEPGVDEKPHLESYEIPSKEKMKVLDALQLINKIHGANIAFRSSCRAGQCGSCAVKMNGEVVLACRAEVEDGAIIEPIDLPVIKDLMVDRGEIEEKVKSMQLYLQASSEGIQRIRPEDYLDSKKLRGCIECFSCISSCPVIKESSEYAGPYFMRYLSKFAFDPRDTGDRAQEGVDKGLYCCTTCGKCAEVCPKELNVPGDAIEKLRAMACREGSGPLDAHRRIKKLISETGRSVDRIKDGFIESVGKNPGSRIGFFTGCLVDYRMPEVGMALLRVLREHGFDVDVPEGQVCCGSPMIRTGQVDIVEDLVEKNRKALRDYDTIITVCAGCGATLKKDYPRYGVKLNVLDISEFLADRIDTIKMKPVNMRVTYHDPCHLKRGQGVEFEPRKILRKIPGLEFVEMEKPDQCCGSGGGVKSGKPEVAEALGRKKADMIRELDVDAVVTICPFCQLHIRDSLDLAGLENVRVMNILELLDLAYSD”, the protein production entry is on record as “failed”. Consider “MRAQMKQYNCHEGALPFTKSYLLRPLFNAFLMSPKPFHTTEACIGCKKCEKVCPVGNITVTDRPVWGGNCTQCLACYHVCPVHAVEYLEHHHHHH”, for which the protein production result is reported as “failed”. For “AGGEDRGDGEPVSVVTVRVQYLEDTDPFACANFPEPRRAPTCSLDGALPLGAQIPAVHRLLGAPLKLEDCALQVSPSGYYLDTELSLEEQREMLEGFYEEISKGRKPTLILRTQLSVRVNAILEKLYSSSGPELRRSLFSLKQIFQEDKDLVPEFVHSEGLSCLIRVGAAADHNYQSYILRALGQLMLFVDGMLGVVAHSDTIQWLYTLCASLSR” the value was “failed”. For “MSKDGLSNDQVSSMKEAFMLFDTDGDGKIAPSELGILMRSLGGNPTESQLKSIITTENLSSPFDFNRFLDLMAKHLKTEPFDRQLRDAFKVLDKEGTGFVAVADLRHILTSIGEKLQPSEFDEWIKEVDVGSDGKIRYEDFIARMVAK” the value was “failed”; for “MSVQNIVNINESNLQQTLEQSMTTPVLFYFWSERSQHCLQLTPVLESLAAQYHGQFILAKLDCDAEQMIAAQFGLRAIPTVYLFQNGQPVDGFQGPQPEEAIRALLDKVLPREEELKAQQAMQLMQEGNYIDALPLLKDAWQLSSQNSEIGLLLAEAQIALNRSEEAEAVLKTIPLQDQDTRYQGLVAQIELLKQAADTPEIQQLQQQVADNPQDAALATQLALQLHQVGRNEEALELLFSHLRKDLTAAEGQTRKTFQEILAALGTGDALASKYRRQLYALLY”, “not failed”. Consider “MNELPIILLSPLIGGALAWLIRVKGIREAIGVVSSAIPLYFLIKLYPALEGEPIRYSLNVGGFELTLALSHISWIFAMIAAVVGLSAVLGLVSTAKDSNEWLFALMSLAGALGVFLANDFVVFFLSWEIMTFASFMMVFKYNRHASLKYFVLSIAGAYAMLLAIGIIYAKTGSLSFPEISAIFRQDAMMGMMGGGGVFTKTETLLIYALFLVAFGVKAGMFPLHVWAPDAYSETNQSYTAMFSGVLSKTGVYGFFLLYLLMYGKLAITLGNVRSAPTFGYIIAFLGGLTIMVGGILAALQEDIRKLFAYSSISQIGYILIGLGIGTPLGIAAATYHAISHALFKGLFFLIVATIIYRTGKTEFKDYGGLAEKMPITFAMAFVAILSLAGIPPMAGFASKWLIFEAVISRNLPILGAMVFFGSAIGFVYLIRFTYAVWFGQRPSDLEDVKDAPLPLAIGMGILAILNVIFGVAPGLVARELNKLFSNPPIGGTIWELDLGFGRYNGLLLSIWLVIGLIIAAILYFMGAGVRKVPVTDTYQSGNPVTMEYNLTIRRNFFLPLKEAMAFWLKMSFDRLYHDIWKAIEELADLARSYVYNGNIQAYAWYLAIILLILVAMGV”, for which the protein production entry is listed as “failed”. Then “MDPSTLMILAIVAVAIIVLAVFFTFVPVMLWISALAAGVKISIFTLVGMRLRRVIPNRVVNPLIKAHKAGLNVGTNQLESHYLAGGNVDRVVNALIAAQRANIELTFERCAAIDLAGRDVLEAVQMSVNPKVIETPFIAGVAMDGIEVKAKARITVRANIERLVGGAGEETIVARVGEGIVSTIGSSDNHKKVLENPDMISQTVLGKGLDSGTAFEILSIDIADVDIGKNIGAILQTDQAEADKNIAQAKAEERRAMAVAQEQEMRARVEEMRAKVVEAEAEVPLAMAEALREGNIGVMDYMNIKNIDADTEMRDSFGKLT”, with “failed”; and “MEVSDGSSQVLNSMKHVASLRADEDPDETSLLLSSTLLDLVVFRLVLVLYCVRVLMLDQYQETIALSQEVMMEDGRREFNVPMNCPIPVVKRRMKAPKHVDEDLFKIFPQATTYLRQIQKGGGSGCFEFIRGEVCTKDLSQNNTFYFIF”, with “failed”. In the case of “MTGPAENSTNFPGHRLKSPLPLRLATLSLLILYPVAWFAPLMRAGLLPIFGLSEISVITGLQSLWASDVALALIVTAFALFAPYLKTIGTALIQWNLLDPRAQPALHILGKLAMADIFLIALYITLAKGISYATIEAAWGLYLFTACILASIALGLLTERQIRKATR”, the protein production entry was “failed”. As for “MEKCSVGGLELTEQTPALLGNMAMATSLMDIGDSFGHPACPLVSRSRNSPVEDDDDDDDVVFIESIQPPSISAPAIADQRNFIFASSKNEKPQGNYSVIPPSSRDLASQKGNISETIVIDDEEDVETNGGAEKKSSFFIEWGLPGTKNKTNDLDFSTSSLSRSKTKTGVRPFNPGRMNVAGDLFQNGEFATHHSPEMHLQRRLMSFFQ”, the protein production entry is on record as “not failed”.
